Here are results for 7 molecules from patent US20200079833A1 (AstraZeneca / MedImmune, published 2020).

The labels stand for the following.
T1: glucose-dependent insulinotropic peptide (gastric inhibitory polypeptide) receptor (human, UniProt P48546 22-466)
T1 sequence (looked up): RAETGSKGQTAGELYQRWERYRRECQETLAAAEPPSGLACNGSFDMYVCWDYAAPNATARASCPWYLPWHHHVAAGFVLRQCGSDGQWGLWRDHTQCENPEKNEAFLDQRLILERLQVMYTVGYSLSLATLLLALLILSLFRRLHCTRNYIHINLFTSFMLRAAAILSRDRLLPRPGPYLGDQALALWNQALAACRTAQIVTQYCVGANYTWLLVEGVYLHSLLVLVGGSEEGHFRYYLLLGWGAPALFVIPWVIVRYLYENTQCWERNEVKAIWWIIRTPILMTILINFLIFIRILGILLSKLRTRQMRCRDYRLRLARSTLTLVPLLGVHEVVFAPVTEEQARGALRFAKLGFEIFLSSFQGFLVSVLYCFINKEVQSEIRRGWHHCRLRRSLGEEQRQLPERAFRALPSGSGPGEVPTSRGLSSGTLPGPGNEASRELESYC

B1: SEQ ID NO 17 (peptide)
peptide: H[Aib]EGS[αMeF]TSDV[αMeS]S[αMeF]LEGEAA[αMeK]E[αMeF]IA[αMeF]VV[αMeK]GG-NH2
modifications: N-terminus assumed
SMILES: CC[C@H](C)[C@H](NC(=O)[C@](C)(Cc1ccccc1)NC(=O)[C@H](CCC(=O)O)NC(=O)[C@](C)(CCCCN)NC(=O)[C@H](C)NC(=O)[C@H](C)NC(=O)[C@H](CCC(=O)O)NC(=O)CNC(=O)[C@H](CCC(=O)O)NC(=O)[C@H](CC(C)C)NC(=O)[C@](C)(Cc1ccccc1)NC(=O)[C@H](CO)NC(=O)[C@](C)(CO)NC(=O)[C@@H](NC(=O)[C@H](CC(=O)O)NC(=O)[C@H](CO)NC(=O)[C@@H](NC(=O)[C@](C)(Cc1ccccc1)NC(=O)[C@H](CO)NC(=O)CNC(=O)[C@H](CCC(=O)O)NC(=O)C(C)(C)NC(=O)[C@@H](N)Cc1c[nH]cn1)[C@@H](C)O)C(C)C)C(=O)N[C@@H](C)C(=O)N[C@@](C)(Cc1ccccc1)C(=O)N[C@H](C(=O)N[C@H](C(=O)N[C@@](C)(CCCCN)C(=O)NCC(=O)NCC(N)=O)C(C)C)C(C)C
B2: SEQ ID NO 24 (peptide)
peptide: H[Aib]EGTFT[Aib]DV[Aib]SYLEGQAAKEFIAWLVKGR-NH2
modifications: N-terminus assumed
SMILES: CC[C@H](C)[C@H](NC(=O)[C@H](Cc1ccccc1)NC(=O)[C@H](CCC(=O)O)NC(=O)[C@H](CCCCN)NC(=O)[C@H](C)NC(=O)[C@H](C)NC(=O)[C@H](CCC(N)=O)NC(=O)CNC(=O)[C@H](CCC(=O)O)NC(=O)[C@H](CC(C)C)NC(=O)[C@H](Cc1ccc(O)cc1)NC(=O)[C@H](CO)NC(=O)C(C)(C)NC(=O)[C@@H](NC(=O)[C@H](CC(=O)O)NC(=O)C(C)(C)NC(=O)[C@@H](NC(=O)[C@H](Cc1ccccc1)NC(=O)[C@@H](NC(=O)CNC(=O)[C@H](CCC(=O)O)NC(=O)C(C)(C)NC(=O)[C@@H](N)Cc1c[nH]cn1)[C@@H](C)O)[C@@H](C)O)C(C)C)C(=O)N[C@@H](C)C(=O)N[C@@H](Cc1c[nH]c2ccccc12)C(=O)N[C@@H](CC(C)C)C(=O)N[C@H](C(=O)N[C@@H](CCCCN)C(=O)NCC(=O)N[C@@H](CCCNC(=N)N)C(N)=O)C(C)C
B3: SEQ ID NO 18 (peptide)
peptide: H[Aib]EGS[αMeF]T[αMeS]DV[αMeS]S[αMeF]LEGEAA[αMeK]E[αMeF]IA[αMeF]VV[αMeK]GG-NH2
modifications: N-terminus assumed
SMILES: CC[C@H](C)[C@H](NC(=O)[C@](C)(Cc1ccccc1)NC(=O)[C@H](CCC(=O)O)NC(=O)[C@](C)(CCCCN)NC(=O)[C@H](C)NC(=O)[C@H](C)NC(=O)[C@H](CCC(=O)O)NC(=O)CNC(=O)[C@H](CCC(=O)O)NC(=O)[C@H](CC(C)C)NC(=O)[C@](C)(Cc1ccccc1)NC(=O)[C@H](CO)NC(=O)[C@](C)(CO)NC(=O)[C@@H](NC(=O)[C@H](CC(=O)O)NC(=O)[C@](C)(CO)NC(=O)[C@@H](NC(=O)[C@](C)(Cc1ccccc1)NC(=O)[C@H](CO)NC(=O)CNC(=O)[C@H](CCC(=O)O)NC(=O)C(C)(C)NC(=O)[C@@H](N)Cc1c[nH]cn1)[C@@H](C)O)C(C)C)C(=O)N[C@@H](C)C(=O)N[C@@](C)(Cc1ccccc1)C(=O)N[C@H](C(=O)N[C@H](C(=O)N[C@@](C)(CCCCN)C(=O)NCC(=O)NCC(N)=O)C(C)C)C(C)C

Starred links: 1 amine or outer side, 2 acyl side, 3 side chain; linkers in the order of their positions; H or OH if unused. Non-standard residues stand in square brackets, D forms with d. Groups on a side chain read outwards from the residue. Primed or numbered codes have the meaning given here. No end group written: not given here. *: point of attachment. γGlu = O=C(O)[C@H](CCC(=O)[*:2])N[*:1]; Stearoyl = CCCCCCCCCCCCCCCCCC(=O)*; αMeF = C[C@](N)(Cc1ccccc1)C(=O)O; αMeK = C[C@](N)(CCCCN)C(=O)O; αMeS = C[C@](N)(CO)C(=O)O; PEG2′ = not defined here; Aib = CC(C)(N)C(=O)O

For the first assay, the target named is glucagon receptor (human, UniProt P47871 26-477). Kind of assay: cell-based or functional assay.
Sequence of glucagon receptor (P47871 26-477): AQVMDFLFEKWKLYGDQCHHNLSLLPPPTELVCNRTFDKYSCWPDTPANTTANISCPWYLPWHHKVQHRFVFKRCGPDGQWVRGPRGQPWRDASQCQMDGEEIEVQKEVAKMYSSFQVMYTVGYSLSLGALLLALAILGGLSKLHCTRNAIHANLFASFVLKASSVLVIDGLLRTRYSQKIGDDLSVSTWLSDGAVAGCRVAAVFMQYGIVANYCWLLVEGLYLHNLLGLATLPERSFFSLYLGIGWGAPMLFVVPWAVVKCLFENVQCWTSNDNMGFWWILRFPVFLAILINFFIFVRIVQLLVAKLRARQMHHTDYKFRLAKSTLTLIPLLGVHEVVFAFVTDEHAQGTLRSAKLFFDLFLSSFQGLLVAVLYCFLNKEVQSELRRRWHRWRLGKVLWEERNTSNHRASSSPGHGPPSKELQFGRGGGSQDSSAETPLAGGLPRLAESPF
As for B1, the “Primary assay EC50 (cAMP), n1” value is 31 nM and the “Primary assay EC50 (cAMP), n2” value was 31 nM.

On to B2, for which the “Primary assay EC50 (cAMP), n1” value was 740 nM and the “Primary assay EC50 (cAMP), n2” value amounted to 740 nM.

Take HXEGTFTSDVXSYLEGQAAKEFIAWLVKGR (Aib 2; Aib 11; C-terminal amide) [SEQ ID NO 22]: the “Primary assay EC50 (cAMP), n1” value worked out at 390 nM and the “Primary assay EC50 (cAMP), n2” value turned out to be 240 nM.

On to HXEGTFTSDVSSYLEGQAAKEFIAWLVKGRK (Aib 2; K(ε-γE-Palmitoyl) after R30; C-terminal amide) [SEQ ID NO 5], for which the “Primary assay EC50 (cAMP), n1” value worked out at 81 nM and the “Primary assay EC50 (cAMP), n2” value was 81 nM.

Regarding H[Aib]EGS[αMeF]TSDV[αMeS]S[αMeF]LEGEAAK([PEG2′-PEG2′-γGlu-Stearoyl])E[αMeF]IA[αMeF]VV[αMeK]GG-NH2 [SEQ ID NO 3], the “Primary assay EC50 (cAMP), n1” value stood at 25 nM and the “Primary assay EC50 (cAMP), n2” value was 25 nM.

For the molecule B3, the “Primary assay EC50 (cAMP), n1” value is 100 nM and the “Primary assay EC50 (cAMP), n2” value was determined as 100 nM.

Consider HXEGTFTXDVSSYLEGQAAKEFIAWLVKGR (Aib 2; Aib 8; C-terminal amide) [SEQ ID NO 20], for which the “Primary assay EC50 (cAMP), n1” value worked out at 290 nM and the “Primary assay EC50 (cAMP), n2” value stood at 290 nM.

The target of a further assay is T1, glucose-dependent insulinotropic …. Kind of assay: cell-based or functional assay.
Consider B1, for which the “Primary assay EC50 (cAMP), n1” value stood at 31 nM and the “Primary assay EC50 (cAMP), n2” value was found to be 31 nM.

Take B2: the “Primary assay EC50 (cAMP), n1” value turned out to be 740 nM and the “Primary assay EC50 (cAMP), n2” value stood at 740 nM.

Turning to HXEGTFTSDVXSYLEGQAAKEFIAWLVKGR (Aib 2; Aib 11; C-terminal amide) [SEQ ID NO 22], the “Primary assay EC50 (cAMP), n1” value was 480 nM and the “Primary assay EC50 (cAMP), n2” value stood at 480 nM.

Turning to HXEGTFTSDVSSYLEGQAAKEFIAWLVKGRK (Aib 2; K(ε-γE-Palmitoyl) after R30; C-terminal amide) [SEQ ID NO 5], the “Primary assay EC50 (cAMP), n1” value was 81 nM and the “Primary assay EC50 (cAMP), n2” value is 81 nM.

For the molecule H[Aib]EGS[αMeF]TSDV[αMeS]S[αMeF]LEGEAAK([PEG2′-PEG2′-γGlu-Stearoyl])E[αMeF]IA[αMeF]VV[αMeK]GG-NH2 [SEQ ID NO 3], the “Primary assay EC50 (cAMP), n1” value was 25 nM and the “Primary assay EC50 (cAMP), n2” value was determined as 25 nM.

Take B3: the “Primary assay EC50 (cAMP), n1” value is 100 nM and the “Primary assay EC50 (cAMP), n2” value is 100 nM.

HXEGTFTXDVSSYLEGQAAKEFIAWLVKGR (Aib 2; Aib 8; C-terminal amide) [SEQ ID NO 20]: the “Primary assay EC50 (cAMP), n1” value amounted to 290 nM and the “Primary assay EC50 (cAMP), n2” value is 290 nM.

For the next assay, the target named is GLP-1 receptor (human, UniProt P43220 24-463). Kind of assay: cell-based or functional assay.
Regarding B1, the “Primary assay EC50 (cAMP), Mean pM GLP-1R” value was determined as 0.2 pM; the “Primary assay EC50 (cAMP), n1” value amounted to 0.00025 nM; the “Primary assay EC50 (cAMP), n2” value is 0.00024 nM.

For B2, the “Primary assay EC50 (cAMP), Mean pM GLP-1R” value came to 5600 pM; the “Primary assay EC50 (cAMP), n1” value was 3.3 nM; the “Primary assay EC50 (cAMP), n2” value was determined as 7.9 nM.

Take HXEGTFTSDVXSYLEGQAAKEFIAWLVKGR (Aib 2; Aib 11; C-terminal amide) [SEQ ID NO 22]: the “Primary assay EC50 (cAMP), Mean pM GLP-1R” value is 118 pM; the “Primary assay EC50 (cAMP), n1” value worked out at 0.12 nM; the “Primary assay EC50 (cAMP), n2” value was determined as 0.12 nM.

HXEGTFTSDVSSYLEGQAAKEFIAWLVKGRK (Aib 2; K(ε-γE-Palmitoyl) after R30; C-terminal amide) [SEQ ID NO 5]: the “Primary assay EC50 (cAMP), Mean pM GLP-1R” value was 6.5 pM; the “Primary assay EC50 (cAMP), n1” value came out at 0.0075 nM; the “Primary assay EC50 (cAMP), n2” value stood at 0.0055 nM.

Take H[Aib]EGS[αMeF]TSDV[αMeS]S[αMeF]LEGEAAK([PEG2′-PEG2′-γGlu-Stearoyl])E[αMeF]IA[αMeF]VV[αMeK]GG-NH2 [SEQ ID NO 3]: the “Primary assay EC50 (cAMP), Mean pM GLP-1R” value is 100 pM; the “Primary assay EC50 (cAMP), n1” value amounted to 0.064 nM; the “Primary assay EC50 (cAMP), n2” value was found to be 0.14 nM.

In the case of B3, the “Primary assay EC50 (cAMP), Mean pM GLP-1R” value worked out at 4940 pM; the “Primary assay EC50 (cAMP), n1” value stood at 4.1 nM; the “Primary assay EC50 (cAMP), n2” value came to 5.8 nM.

Take HXEGTFTXDVSSYLEGQAAKEFIAWLVKGR (Aib 2; Aib 8; C-terminal amide) [SEQ ID NO 20]: the “Primary assay EC50 (cAMP), Mean pM GLP-1R” value was 13400 pM; the “Primary assay EC50 (cAMP), n1” value turned out to be 15 nM; the “Primary assay EC50 (cAMP), n2” value was 12 nM.
